Measured values: patent US20200164032A1 (WASHINGTON UNIVERSITY, published 2020)
Where a chain is given by its changes, count along the chain named.

B1: R17 266NAGAQ270 (R17 with 266DSGSE270 mutated to 266NAGAQ270), C-terminal His construct (receptor)
chain: GPVGEPVASEINEASKVSSRLLTQDILFRKDRQATISLPIKLPVEDIITQTCDKITYGPLKFLDLLEKETAVLPLSTDITCPACLGRAVLVGKWECPAHVAVNESDLTVFGPNKEEHVPQFVTVQQPSDGKMQRLFFAKFLGTEESLAVLRVPGPDGHLCIQEALIHFKELSGAGVCSLWKANDSREEGLEMKQVDCLETTVLENQTCIATTLSKKIYHRLYCGERLMTGGQVSTRVLLTALGFYKRQPYTFHRVPKGMVYVHLINAGAQDYMEYSECEEVTPGRYEDKQISYTFYTDLFQTADGEPVLASVWGTSGLKDSAYESCAFVIPTKGRRKLVPRRIMSKCYPFRLTYHPSTMTVRLDVRVEKHHGATDQGFVFLKMESGTYSEGREYYLDRVLWGEDSSTNNVLQ
B2: R17GAG1 (R17 with residues 29 to 32 RKDR mutated to EDDE), C-terminal His construct (receptor)
chain: B1 chain with R29E, K30D, R32E, N266D, A267S, A269S, Q270E
notes: not shown: C-terminal 8-His tag
B3: R17GAG2 (R17 with residues 333 to 337 KGRRK mutated to DGEED), C-terminal His construct (receptor)
chain: B1 chain with N266D, A267S, A269S, Q270E, K333D, R335E, R336E, K337D
notes: as for B2
B4: R17 264GG(G)DS267 chemokine null mutant (264LIDS267 replaced by 264GG(G)DS267, with a glycine insert (receptor)
chain: GPVGEPVASEINEASKVSSRLLTQDILFRKDRQATISLPIKLPVEDIITQTCDKITYGPLKFLDLLEKETAVLPLSTDITCPACLGRAVLVGKWECPAHVAVNESDLTVFGPNKEEHVPQFVTVQQPSDGKMQRLFFAKFLGTEESLAVLRVPGPDGHLCIQEALIHFKELSGAGVCSLWKANDSREEGLEMKQVDCLETTVLENQTCIATTLSKKIYHRLYCGERLMTGGQVSTRVLLTALGFYKRQPYTFHRVPKGMVYVHGGGDSGSEDYMEYSECEEVTPGRYEDKQISYTFYTDLFQTADGEPVLASVWGTSGLKDSAYESCAFVIPTKGRRKLVPRRIMSKCYPFRLTYHPSTMTVRLDVRVEKHHGATDQGFVFLKMESGTYSEGREYYLDRVLWGEDSSTNNVLQ

Key:
[1] = biological target: T1, murine CCL3 (mouse, UniProt P10855 24-92)
T1 sequence: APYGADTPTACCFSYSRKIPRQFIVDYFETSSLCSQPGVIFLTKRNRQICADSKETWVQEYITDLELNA

[2] = biological target: T2, murine CCL2 (mouse, UniProt P10148 24-148); test: SPR, mutant R17 on CM5 chip
T2 construct: also called mCCL2

[3] = biological target: CCL2 (species not given); test: SPR, R17 variant on CM5 chip; column KDeq (nM)
[4] = biological target: CCL2 (species not given); test: SPR, R17 variant on CM5 chip; column kd x 10^-3 s-1
[5] = biological target: CCL2 (species not given); test: SPR, R17 variant on CM5 chip; column KD (nM), kinetic
[6] = biological target: CCL2 (species not given); test: SPR, R17 variant on CM5 chip; column ka x 10^6 M-1s-1
[7] = biological target: CCL3 (species not given); test: SPR, R17 variant on CM5 chip; column KDeq (nM); ka, kd, KD printed n/a
[8] = biological target: T3, human CCL3 (human, UniProt P10147 23-92); test: SPR, R17 264GG(G)DS267 on CM5 chip, hCCL3 injected
T3 construct: also called hCCL3
T3 sequence: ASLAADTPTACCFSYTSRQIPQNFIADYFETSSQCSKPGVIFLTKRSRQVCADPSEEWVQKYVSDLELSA

T2 sequence (P10148 24-148 limits assumed): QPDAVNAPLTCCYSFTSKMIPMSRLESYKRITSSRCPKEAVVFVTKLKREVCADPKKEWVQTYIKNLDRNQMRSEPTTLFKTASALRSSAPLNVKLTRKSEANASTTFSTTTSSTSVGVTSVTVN

Binder | Kd [1] [nM] | koff [1] [s⁻¹] | kon [1] [M⁻¹ s⁻¹] | t1/2 [1] [s] | binding result [2] | Kd [3] [nM] | koff [4] [s⁻¹] | Kd [5] [nM] | kon [6] [M⁻¹ s⁻¹] | Kd [7] [nM] | binding result [8]
B1 | 2.9 | 0.061 | 3.1e+07 | 11.2 | no binding |  |  |  |  |  | 
B2 |  |  |  |  |  | 31 | 0.0137 | 10 | 1.2e+06 | 0.8 | 
B3 |  |  |  |  |  | 40 | 0.012 | 9.5 | 1.2e+06 | 0.31 | 
B4 |  |  |  |  |  |  |  |  |  |  | no binding (tested: 100 nM)
